Experimental data: patent US20110318339A1 (FABRUS, published 2011)

Columns and labels:
[1] = biological target: T1, rHuman IGF-1 sR, (IGF-1 sR), CF (Cat# 391-GR) (human, UniProt P08069 31-932); experiment: Multispot ECL; Fab 58.1 nM
T1 construct: Bought from R&D Systems; also called insulin-like growth factor-1 soluble receptor
Experimental: (§1) An 150 μl aliquot of 1% Bovine Serum Albumin (BSA) in Tris-buffered Saline Tween (TBST) was added to each well and allowed to incubate for 30 min at 20° C. followed by washing and tap drying to completely remove any residual solution. Subsequently, a 12.5 μl aliquot of 1% BSA TBST was added to each well followed by the addition of a 12.5 μl aliquot of a purified Fab. The plate was sealed and incubated for 1 hour at 20° C. with shaking.
(§2) Detection antibodies were prepared by individually conjugating both goat anti-human Kappa light chain polyclonal antibody (K3502-1MG, Sigma-Aldrich) and goat anti-human Lambda light chain polyclonal antibody (L1645-1 mL, Sigma-Aldrich) with Ruthenium (II) tris-bipyridine-(4-methylsulfone)-N-hydroxysuccinimide (SULFO-TAG NHS-ester, Meso Scale Discovery) according to the manufacturer's instructions. TAG-detection antibody at 25 μl was added to each well and allowed to incubate for 1 hour at 20° C. with shaking. Finally, 15 μl of Read Buffer P with Surfactant (Cat # R92PC-1, Meso Scale Discovery) was added to each well. The electrochemiluminescence was measured using a Sector Imager 2400 (Meso Scale Discovery). Data was analyzed by comparing the ECL signals for an antigen to the blank of each well. A signal to blank ratio of 4 or more was considered a “Hit” Fab.
(§3) To confirm a “Hit” from the initial Multispot ECL screening, a Fab concentration dependent titration was carried out to determine the Fab-antigen binding affinity.

[2] = biological target: T2, Recombinant Human DLL4 (Cat# 1506-D4/CF) (human, UniProt Q9NR61 27-529); experiment: Multispot ECL; Fab 58.1 nM
T2 construct: Bought from R&D Systems; also called rHuman DLL4; hDLL4
Experimental: as §1, §2, §3

[3] = biological target: T3, rHuman Notch-1/Fc Chimera, CF (Cat# 3647-TK) (human, UniProt P46531 19-526); experiment: Multispot ECL; Fab 58.1 nM
T3 construct: Bought from R&D Systems
Experimental: as §1, §2, §3

[4] = biological target: T4, rHuman Erythropoietin R/Fc Chimera, CF (Cat# 963-ER) (human, UniProt P19235 25-250); experiment: Multispot ECL; Fab 58.1 nM
T4 construct: Bought from R&D Systems; also called EPO R/Fc; Epo R/Fc chimera
T4 sequence (looked up): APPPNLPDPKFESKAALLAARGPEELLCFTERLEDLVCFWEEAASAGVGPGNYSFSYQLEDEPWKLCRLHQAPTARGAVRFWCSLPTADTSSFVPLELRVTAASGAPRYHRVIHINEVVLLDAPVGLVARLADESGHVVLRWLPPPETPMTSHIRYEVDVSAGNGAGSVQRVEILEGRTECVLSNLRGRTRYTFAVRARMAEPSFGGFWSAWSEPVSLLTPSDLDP
Experimental: as §1, §2, §3

[5] = biological target: T5, rHuman ErbB2/Fc Chimera, CF (Cat# 1129-ER) (human, UniProt P04626 23-652); experiment: Multispot ECL; Fab 58.1 nM
T5 construct: Bought from R&D Systems; also called human epidermal growth factor 2 receptor (ErbB2)
Experimental: as §1, §2, §3

[6] = biological target: T6, rHuman CD44/Fc Chimera, CF (Cat# 3660-CD) (human, UniProt P16070 21-220); experiment: Multispot ECL; Fab 58.1 nM
T6 construct: Bought from R&D Systems
Experimental: as §1, §2, §3

[7] = biological target: T1, rHuman IGF-1 sR, (IGF-1 sR), CF (Cat# …); experiment: Multispot ECL; Fab 14.5 nM
Experimental: as §1, §2, §3

[8] = biological target: T2, Recombinant Human DLL4 (Cat# 1506-D4/CF); experiment: Multispot ECL; Fab 14.5 nM
Experimental: as §1, §2, §3

[9] = biological target: T3, rHuman Notch-1/Fc Chimera, CF (Cat# …); experiment: Multispot ECL; Fab 14.5 nM
Experimental: as §1, §2, §3

[10] = biological target: T4, rHuman Erythropoietin R/Fc Chimera, CF …; experiment: Multispot ECL; Fab 14.5 nM
Experimental: as §1, §2, §3

[11] = biological target: T5, rHuman ErbB2/Fc Chimera, CF (Cat# …); experiment: Multispot ECL; Fab 14.5 nM
Experimental: as §1, §2, §3

[12] = biological target: T6, rHuman CD44/Fc Chimera, CF (Cat# …); experiment: Multispot ECL; Fab 14.5 nM
Experimental: as §1, §2, §3

[13] = biological target: T1, rHuman IGF-1 sR, (IGF-1 sR), CF (Cat# …); experiment: Multispot ECL; Fab 232.5 nM
Experimental: as §1, §2, §3

[14] = biological target: T2, Recombinant Human DLL4 (Cat# 1506-D4/CF); experiment: Multispot ECL; Fab 232.5 nM
Experimental: as §1, §2, §3

[15] = biological target: T3, rHuman Notch-1/Fc Chimera, CF (Cat# …); experiment: Multispot ECL; Fab 232.5 nM
Experimental: as §1, §2, §3

[16] = biological target: T4, rHuman Erythropoietin R/Fc Chimera, CF …; experiment: Multispot ECL; Fab 232.5 nM
Experimental: as §1, §2, §3

[17] = biological target: T5, rHuman ErbB2/Fc Chimera, CF (Cat# …); experiment: Multispot ECL; Fab 232.5 nM
Experimental: as §1, §2, §3

[18] = biological target: T6, rHuman CD44/Fc Chimera, CF (Cat# …); experiment: Multispot ECL; Fab 232.5 nM
Experimental: as §1, §2, §3

[19] = biological target: T1, rHuman IGF-1 sR, (IGF-1 sR), CF (Cat# …); experiment: Multispot ECL; Fab 930 nM
Experimental: as §1, §2, §3

[20] = biological target: T2, Recombinant Human DLL4 (Cat# 1506-D4/CF); experiment: Multispot ECL; Fab 930 nM
Experimental: as §1, §2, §3

[21] = biological target: T3, rHuman Notch-1/Fc Chimera, CF (Cat# …); experiment: Multispot ECL; Fab 930 nM
Experimental: as §1, §2, §3

[22] = biological target: T4, rHuman Erythropoietin R/Fc Chimera, CF …; experiment: Multispot ECL; Fab 930 nM
Experimental: as §1, §2, §3

[23] = biological target: T5, rHuman ErbB2/Fc Chimera, CF (Cat# …); experiment: Multispot ECL; Fab 930 nM
Experimental: as §1, §2, §3

[24] = biological target: T6, rHuman CD44/Fc Chimera, CF (Cat# …); experiment: Multispot ECL; Fab 930 nM
Experimental: as §1, §2, §3

ECL signal [1]: 343
ECL signal [2]: 1880
ECL signal [3]: 388
ECL signal [4]: 829
ECL signal [5]: 322
ECL signal [6]: 375
ECL signal [7]: 234
ECL signal [8]: 1150
ECL signal [9]: 317
ECL signal [10]: 660
ECL signal [11]: 274
ECL signal [12]: 212
ECL signal [13]: 569
ECL signal [14]: 3590
ECL signal [15]: 778
ECL signal [16]: 1470
ECL signal [17]: 779
ECL signal [18]: 607
ECL signal [19]: 1920
ECL signal [20]: 8160
ECL signal [21]: 2210
ECL signal [22]: 3010
ECL signal [23]: 2220
ECL signal [24]: 1920
B1: Fab VH1-46_IGHD6-13*01_IGHJ4*01 & O1_IGKJ1*01 (Fab, V domains shown)
VH: QVQLVQSGAEVKKPGASVKVSCKASGYTFTSYYMHWVRQAPGQGLEWMGIINPSGGSTSYAQKFQGRVTMTRDTSTSTVYMELSSLRSEDTAVYYCAREGYSSSWYDYFDYWGQGTLVTVSS
VL: DIVMTQTPLSLPVTPGEPASISCRSSQSLLDSDDGNTYLDWYLQKPGQSPQLLIYTLSYRASGVPDRFSGSGSGTDFTLKISRVEAEDVGVYYCMQRIEFPSWTFGQGTKVEIKR
notes: Germline-derived Fab from E. coli: VH in Plasmid A (CH1, His6 and Flag tags), VL in Plasmid C (kappa CL)
